This passage reports koff results from PMC12638815 (2025).

The test concerns the target hACE2 peptidase domain fused to a human Fc from IgG (human). Briefly: BLI. For orientation: Biolayer interferometry detects binding as a change in optical thickness at a sensor tip.

Substitutions are numbered along the chain they refer to.

The term koff denotes the rate constant with which the complex falls apart. A higher koff goes with fast dissociation.

Sequence of hACE2 peptidase domain fused to a human Fc from IgG (human) (Q9BYF1 19-615): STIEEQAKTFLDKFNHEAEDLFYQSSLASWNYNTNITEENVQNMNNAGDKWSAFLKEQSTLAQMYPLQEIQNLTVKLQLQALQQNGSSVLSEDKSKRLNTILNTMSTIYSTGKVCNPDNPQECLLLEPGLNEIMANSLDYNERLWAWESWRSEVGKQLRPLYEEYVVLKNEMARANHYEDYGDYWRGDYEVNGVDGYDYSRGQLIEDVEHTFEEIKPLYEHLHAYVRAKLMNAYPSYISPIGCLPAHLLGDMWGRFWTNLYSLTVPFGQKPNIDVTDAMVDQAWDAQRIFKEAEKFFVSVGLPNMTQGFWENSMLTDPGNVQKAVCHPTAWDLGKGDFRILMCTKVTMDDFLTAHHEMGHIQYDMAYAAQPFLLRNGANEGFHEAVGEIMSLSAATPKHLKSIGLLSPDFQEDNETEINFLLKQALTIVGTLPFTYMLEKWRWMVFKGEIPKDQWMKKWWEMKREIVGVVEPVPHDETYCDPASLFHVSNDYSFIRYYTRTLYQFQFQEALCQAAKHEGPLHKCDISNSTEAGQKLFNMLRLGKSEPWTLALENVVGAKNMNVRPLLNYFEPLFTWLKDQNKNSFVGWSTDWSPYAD

B1: VHH B09 (VHH)
VHH: QVQLVESGGGLVQAGGSLRLSCATSRSTFSSNTIGWYRQAPGKQRELVASISTSGNTYYADSVKGRFAISRDNAENTVYLQMNSLKPEDTAVYYCNTPSRRISNFWGQGTQVTVSS
Molecule B1 returned a koff of 0.000106 s⁻¹.

B2: VHH B07 (VHH)
VHH: B1 VHH with Q1E, V5Q, E6A, T24A, S31T, A60P
B2: the koff was determined as 0.0001 s⁻¹.

B3: VHH B10 (VHH)
VHH: QVQLVESGGGLVQAGDSLRLSCAASGRTFSSYAMGWFRQALGKEREFVAVISGSGTSTYYTDSVKGRFTISRDNAKNTVYLQMNSLKPEDTAVYYCARAKGFSTIYNQDEGRYDYWGQGTQVTVSS
B3 gave a koff of 0.000411 s⁻¹.
